Measurements from patent US20220387441A1, “TARGETING THE NEUROLIGIN-3 BINDING PARTNER CSPG4 IN GLIOMA” (The Board of Trustees of the Leland Stanford Junior …, priority 2021, published 2022).

Tests used:
CTLA4 = target: T1, CTLA4 (Homo sapiens, UniProt P16410); conditions: cited from earlier work
T1 construct: CTLA4 is expressed exclusively on T cells; host or cells: patients' T cells (endogenous)
T1 sequence (P16410 36-223): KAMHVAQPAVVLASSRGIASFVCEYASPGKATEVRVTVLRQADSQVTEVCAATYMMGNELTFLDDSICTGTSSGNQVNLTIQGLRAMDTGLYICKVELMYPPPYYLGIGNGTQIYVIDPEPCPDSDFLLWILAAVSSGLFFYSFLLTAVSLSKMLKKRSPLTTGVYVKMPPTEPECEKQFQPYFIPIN

[1] = system: CSPG4 shedding from glioma cells (DIPG neurospheres 13pons, 21); experiment: CSPG4 Release Assay (western blot of conditioned medium); assay type: cell-based, human
Source text: (§1) Here, we provide evidence that both NLGN3 and CSPG4 ectodomains are in fact cleaved in response to neuronal activity, but that these events are separated in space and time. NLGN3 undergoes ADAM-mediated cleavage in response to glutamate-mediated depolarization, freeing the NLGN3 ectodomain to bind the LNS domains of CSPG4 and induce its subsequent cleavage from the membrane (FIG. 2A). High-grade glioma cells constitutively shed proteins such as CSPG4 and NLGN3 into their culture medium. […] These proteins represent cleaved ectodomains, given their failure to react with a C-terminal CSPG4 antibody (FIG. 2B). We also note that these proteins appear as smears by western blot in large part due to the effects of chondroitin sulfate as treatment of conditioned medium with Chondroitinase ABC collapses these smears into sharp bands (FIG. 2B).
CSPG4 Release Assay: DIPG neurospheres (13pons, 21) were cultured in defined medium (1:1 Neurobasal and DMEM F12, 1× Glutamax, 1× pen/strep, 1×MEM NEAA, 1× sodium pyruvate, 1×HEPES, 1×B-27 (w/o vit A) supplement, heparin, EGF, FGF, PDGF-AA, PDGF-BB) at 37C, 5% CO2. Cells were pelleted at 250G×5 min, medium aspirated, and washed in HBSS w/o calcium and magnesium. […] Dissociated and washed cells were resuspended in HBSS plus Ca+/Mg+ and counted. […]

DIPG6 xenografts = experiment: DIPG6 xenograft survival; assay type: in vivo; conditions: 40 mg/kg IP, 5 days with 2 days of rest, P130 through P158, DIPG6 cells in cortices of NSG mice
Description: Dosing of 40 mg/kg was administered via IP injection for 5 days with 2 days of rest in between cycles. Mice were then followed until death.

DIPG13p xenografts = experiment: DIPG13p xenograft survival; assay type: in vivo; conditions: 30 mg/kg oral gavage daily (5 days on/2 days off) until death, DIPG 13p cells in pons of NSG mice
Source text: Blockade of CSPG4 RIP via gamma secretase inhibition attenuates glioma growth. Given that CSPG4 is the largest and most structurally complex member of the surfaceome with several validated binding partners and numerous reported functions, we sought to disrupt signaling events downstream of CSPG4 RIP. To that end, we xenografted human glioma cells into pons of immune-deficient mice and treated them with gamma secretase inhibitor to prevent CSPG4 RIP. The treatment of murine OPCs with a gamma secretase inhibitor accelerated their differentiation in vitro as assessed by MBP staining and in line with reports from others.
Treatment was continued daily (5 days on/2 days off) until death with mice receiving 30 mg/kg of gamma secretase inhibitor or matched vehicle by oral gavage.

primary mouse OPCs = experiment: AN2 shedding from primary mouse OPCs; assay type: cell-based; conditions: primary mouse OPCs incubated with human sNLGN3
Source text: as §1

[2] = system: mouse-derived optic pathway glioma cells; experiment: AN2 shedding from mouse-derived optic pathway glioma cells; assay type: cell-based; conditions: mouse-derived optic pathway glioma cells incubated with human sNLGN3
Source text: as §1

## Tremelimumab: fully humanized CTLA4 antibody
CTLA4; 10 mg/kg monthly regimen versus 15 mg/kg every 3 months, randomized clinical trial
  toxicity: doubled
CTLA4; at one month
  sustained plasma level in patients with the majority of responses: > 30 µg/mL
CTLA4; single antibody infusion, doses 0.01 mg/kg to 15 mg/kg, patients
  dose at which objective responses were evident: ≥ 3 mg/kg

## CNC(=O)[C@@H](NC(=O)[C@H](CCCc1ccccc1)[C@H](C)N(O)C=O)C(C)(C)C [G1254023X]
[1]; pre-treatment of glioma cells with ADAM10i, 4 uM, 15 minutes
  shedding of CSPG4 into culture medium (baseline ADAM-mediated cleavage): prevents shedding

## COC(=O)N1CC2(CC2)C[C@H](C(=O)NO)[C@H]1C(=O)N1CC=C(c2ccccc2)CC1 [Aderbasib]
DIPG6 xenografts
  mouse survival: extends mouse survival

## CC(C)(C(=O)NCC(F)(F)C(F)(F)F)C(=O)N[C@@H]1C(=O)Nc2ccccc2-c2ccccc21 [RO4929097]
DIPG13p xenografts
  mouse survival: extends mouse survival

B1: recombinant NLGN3 ectodomains: recombinant human NLGN3 ectodomain, produced in house (protein, UniProt Q9NZ94 38-709, looked up)
extracellular domain: QAPAPTVNTHFGKLRGARVPLPSEILGPVDQYLGVPYAAPPIGEKRFLPPEPPPSWSGIRNATHFPPVCPQNIHTAVPEVMLPVWFTANLDIVATYIQEPNEDCLYLNVYVPTEDVKRISKECARKPNKKICRKGGSGAKKQGEDLADNDGDEDEDIRDSGAKPVMVYIHGGSYMEGTGNMIDGSILASYGNVIVITLNYRVGVLGFLSTGDQAAKGNYGLLDQIQALRWVSENIAFFGGDPRRITVFGSGIGASCVSLLTLSHHSEGLFQRAIIQSGSALSSWAVNYQPVKYTSLLADKVGCNVLDTVDMVDCLRQKSAKELVEQDIQPARYHVAFGPVIDGDVIPDDPEILMEQGEFLNYDIMLGVNQGEGLKFVEGVVDPEDGVSGTDFDYSVSNFVDNLYGYPEGKDTLRETIKFMYTDWADRDNPETRRKTLVALFTDHQWVEPSVVTADLHARYGSPTYFYAFYHHCQSLMKPAWSDAAHGDEVPYVFGVPMVGPTDLFPCNFSKNDVMLSAVVMTYWTNFAKTGDPNKPVPQDTKFIHTKANRFEEVAWSKYNPRDQLYLHIGLKPRVRDHYRATKVAFWKHLVPHLYNLHDMFHYTSTTTKVPPPDTTHSSHITRRPNGKTWSTKRPAISPAYSNENAQGSWNGDQDAGPLLVENPRDYSTELS
modifications: extracellular domain
notes: recombinant human NLGN3 ectodomain, produced in house
[1]; glioma cells exposed to 100 nM recombinant human NLGN3 ectodomain, 1 hour
  ADAM-mediated CSPG4 cleavage: augments this ADAM-mediated CSGP4 cleavage
Primary mouse OPCs
  shedding of murine AN2: augment the shedding of murine AN2
[2]
  shedding of murine AN2: augment the shedding of murine AN2
